Here are results for 39 variants from the RNAGym collection of RNA variant scans (doi:10.7554/elife.90254).

First the molecules themselves.
B1: LINE1-full (parent)
chain: UACGUAGGUGGUUUUCCCCUGAUAGUGCUAAGGGGGCCUGGAAGUUUGGACUGGGCAGAGCUCAACACAGCGUGGCAAAGUGGCUGUGGCUAGACUGCCUCUCUGGAUUCCUCGUCACUCAGCAGGGCAUCUCUGAGAGAAAUGCC

Variants of B1 are the subject of the series. Briefly: self-cleavage, relative activity (ratio to wild type); higher = more cleavage; in vitro, sequencing; the parent is a self-cleaving ribozyme.
As for UACGUAGGUGGUUUUCCCCUGAUAGUGCAAAGGGGGCCUGGAAGUUUGGACUGGGCAGAGCUCAUCACAGCGUGGCAAAGUGGCUGUGGCUAGACUGCCUCUCUGGAUUCCUCGUCACUCAGCAGGGCAUCUCUGAGAGAAAUGCC [U29A A65U], the self-cleavage came to 0.23. Then UACGUAGGUGGUUUUCCCCUGAUAGUGCAAAGGGGGCCUGGAAGUUUGGACUGGGCAGAGCUCAACACAGCGUGGCAAAGUGGCUGUGGCUGGACUGCCUCUCUGGAUUCCUCGUCACUCAGCAGGGCAUCUCUGAGAGAAAUGCC [U29A A92G], with 0; and UACGUAGGUGGUUUUCCCCUGAUAGUGCAAAGGGGGCCUGGAAGUUUGGACUGGGCAGAGCUCAACACAGCGUGGCAAAGUGGCUGGGGCUAGACUGCCUCUCUGGAUUCCUCGUCACUCAGCAGGGCAUCUCUGAGAGAAAUGCC [U29A U87G], with 0.12. On to UACGUAGGUGGUUUUCCCCUGAUAGUGCAAAGGGGGCCUGGAAGUUUGGACUGGGCAGAGCUCAACACAGCGUGGCAAAGUGGCUGCGGCUAGACUGCCUCUCUGGAUUCCUCGUCACUCAGCAGGGCAUCUCUGAGAGAAAUGCC [U29A U87C], for which the self-cleavage was 0.22. Then UACGUAGGUGGUUUUCCCCUGAUAGUGCAAAGGGGGCCGGGAAGUUUGGACUGGGCAGAGCUCAACACAGCGUGGCAAAGUGGCUGUGGCUAGACUGCCUCUCUGGAUUCCUCGUCACUCAGCAGGGCAUCUCUGAGAGAAAUGCC [U29A U39G], with 1.58. For the variant UACGUAGGUGGUUUUCCCCUGAUAGUGCAAAGGGGGCCUGGAAGUUUGGACUGGGCAGAGCUCAACACAGCGUGGCAAAGUGGCUGUGGCUAGACUGCCUCUCUGGAUUCCUCGUCACUCAGCAGGGCGUCUCUGAGAGAAAUGCC [U29A A129G], the self-cleavage stood at 1.11. For the variant UACGUAGGUGGUUUUCCCCUGAUAGUGCAAAGGGGGCCUGGAAGUUCGGACUGGGCAGAGCUCAACACAGCGUGGCAAAGUGGCUGUGGCUAGACUGCCUCUCUGGAUUCCUCGUCACUCAGCAGGGCAUCUCUGAGAGAAAUGCC [U29A U47C], the self-cleavage was found to be 0. In the case of UACGUAGGUGGUUUUCCCCUGAUAGUGCAAAGGGGGCCUGGAAGUUUGGACUGGGCAGAGCUCAACACAGCGUGGCAAAGCGGCUGUGGCUAGACUGCCUCUCUGGAUUCCUCGUCACUCAGCAGGGCAUCUCUGAGAGAAAUGCC [U29A U81C], the self-cleavage was determined as 0.92. With UACGUAGGUGGUUUUCCCCUGAUAGUGCCUAGGGGGCCUGGAAGUUUGGACUGGGCAGAGCUCAACACAGCGUGGCAAAGUGGCUGUGGCUAGACUGCCUCUCUGGAUUCCUCGUCACUCAGCAGGGCAUCUCUGAGAGAAAUGCC [U29C A30U], the self-cleavage was 1.23. As for UACGUAGGUGGUUUUCCCCUGAUAGUGCCGAGGGGGCCUGGAAGUUUGGACUGGGCAGAGCUCAACACAGCGUGGCAAAGUGGCUGUGGCUAGACUGCCUCUCUGGAUUCCUCGUCACUCAGCAGGGCAUCUCUGAGAGAAAUGCC [U29C A30G], the self-cleavage was determined as 0.89. For UACGUAGGUGGUUUUCCCCUGAUAGUGCAAAGGGGGCCUGGAAGUUUGGACUGGGCAGAGCACAACACAGCGUGGCAAAGUGGCUGUGGCUAGACUGCCUCUCUGGAUUCCUCGUCACUCAGCAGGGCAUCUCUGAGAGAAAUGCC [U29A U62A], the self-cleavage amounted to 0. Then UACGUAGGUGGUUUUCCCCUGAUAGUGCAAAGGGGGCCUGGAAGUUUGGACUGGGCAGAGCUCAACACAGCGUAGCAAAGUGGCUGUGGCUAGACUGCCUCUCUGGAUUCCUCGUCACUCAGCAGGGCAUCUCUGAGAGAAAUGCC [U29A G74A], with 0.59; and UACGUAGGUGGUUUUCCCCUGAUAGUGCAAAGGGGGCCUGGAAGUUUGGACUGGGCAGAGCUCAACACAGCGUGGCAAAGUGGCUGUGGCUAGACUGCCUCUCUGGAUUCCUCGUCACUCAGCAGGGCAUCUCUGAGAGAAAUGUC [U29A C145U], with 0.61. Then UACGUAGGUGGUUUUCCCCUGAUAGUGCAAAGGGGGCCUGGAAGUUUGGACUGGGCAGAGCUCAACACAGCGUGGCAAAGUGGCUGUGGCUAGACUGCCUCUCUGGAUUCCUCGUCACUCAGCAGAGCAUCUCUGAGAGAAAUGCC [U29A G126A], with 0.75; and UACGUAGGUGGUUUUCCCCUGAUAGUGCAAAGGGGGCCUGGAAGUUUGGACUGGGCAGAGCUCAACACAGCGUGGCAAAGUGGCUGUGGCUAGACUGCCUCUCAGGAUUCCUCGUCACUCAGCAGGGCAUCUCUGAGAGAAAUGCC [U29A U104A], with 1.26; and UACGUAGGUGGUUUUCCCCUGAUAGUGCAAAGGGGGCCUGAAAGUUUGGACUGGGCAGAGCUCAACACAGCGUGGCAAAGUGGCUGUGGCUAGACUGCCUCUCUGGAUUCCUCGUCACUCAGCAGGGCAUCUCUGAGAGAAAUGCC [U29A G41A], with 1.7. Take UACGUAGGUGGUUUUCCCCUGAUAGUGCAAAGGGGGCCUGGAAGUUUGGACUGGGCAGAGCUCAACACAGCGUGGCAAAGUGGCUGUGGCUAGACUGCCUCUCUGGAUUCCUCGUCACUCAGCAGGGCAUCUCUGAGAGGAAUGCC [U29A A140G]: the self-cleavage stood at 1.3. Then UACGUAGGUGGUUUUCCCCUGAUAGUGCAAAGGGGGCCUGGAAGUCUGGACUGGGCAGAGCUCAACACAGCGUGGCAAAGUGGCUGUGGCUAGACUGCCUCUCUGGAUUCCUCGUCACUCAGCAGGGCAUCUCUGAGAGAAAUGCC [U29A U46C], with 1.21; and UACGUAGGUGGUUUUCCCCUGAUAGUGCAAAGGGGGCCUGGAAGUUUGGACUGGGCAGAGCUCAACACAGCGUGGCAAAGUGGCUGUGGCUAGACUGCCUCUCUGGAUUCCUCGCCACUCAGCAGGGCAUCUCUGAGAGAAAUGCC [U29A U115C], with 1.98. Regarding UACGUAGGUGGUUUUCCCCUGAUAGUGCAAAGGGUGCCUGGAAGUUUGGACUGGGCAGAGCUCAACACAGCGUGGCAAAGUGGCUGUGGCUAGACUGCCUCUCUGGAUUCCUCGUCACUCAGCAGGGCAUCUCUGAGAGAAAUGCC [U29A G35U], the self-cleavage is 1.16. Turning to UACGUAGGUGGUUUUCCCCUGAUAGUGCAAAGGGGGCCUGGAAGUUUGGACUGGGCAGAGCUCAACACAGCGAGGCAAAGUGGCUGUGGCUAGACUGCCUCUCUGGAUUCCUCGUCACUCAGCAGGGCAUCUCUGAGAGAAAUGCC [U29A U73A], the self-cleavage stood at 1.55.

Consider UACGUAGGUGGUUUUCCCCUGAUAGUGCAAAGGGGGCCUGGAAGUUUGGACUGGGCAGAGCUCAACACAGCGUGGCAAAGUGGCUGUGGCUAGACUGCCUCUCUGGAUUCCUCGUCACUCAGCGGGGCAUCUCUGAGAGAAAUGCC [U29A A124G], for which the self-cleavage is 0.91. Then UACGUAGGUGGUUUUCCCCUGAUAGUGCAAAGGGGGCCUGGAAGUUUGGACUGGGCAGAGCUCAACGCAGCGUGGCAAAGUGGCUGUGGCUAGACUGCCUCUCUGGAUUCCUCGUCACUCAGCAGGGCAUCUCUGAGAGAAAUGCC [U29A A67G], with 0.67. Then UACGUAGGUGGUUUUCCCCUGAUAGUGCAAAGGGGGCCUGGAAGUUUGGACUGGGCAGAGCUCUACACAGCGUGGCAAAGUGGCUGUGGCUAGACUGCCUCUCUGGAUUCCUCGUCACUCAGCAGGGCAUCUCUGAGAGAAAUGCC [U29A A64U], with 0.25; and UACGUAGGUGGUUUUCCCCUGAUAGUGCAAAGGGGGCCUGGAAGUUUGGACUGGGCAGAGCUCAACACAGCGUGGCAAAGUGGCUGUGGCUAGACUGCCUCUCUGGAUCCCUCGUCACUCAGCAGGGCAUCUCUGAGAGAAAUGCC [U29A U109C], with 1.25; and UACGUAGGUGGUUUUCCCCUGAUAGUGCAAAGGGGGCCUGGAAGUUUGGACUGGGCAGAGCUCAACACAGCGUGGCAAAGUGGCUGUGGCUAGACUGCCUCUCUGGAUUCCUCGUCACUCAGCAGGGCAUCUCUGAGGGAAAUGCC [U29A A138G], with 1.11. Then UACGUAGGUGGUUUUCCCCUGAUAGUGCAAAGGGGGCCUGGAAGUUUGGACUGGGCAGAGCUCAACACAGCGUGGCAAAGUGGCUGUGGCUAGACUGCCUCUCUGGAUUCCUCGUCACUCAGCAGGGCAUCUCAGAGAGAAAUGCC [U29A U134A], with 1.19; and UACGUAGGUGGUUUUCCCCUGAUAGUGCAAAGGGGGCCUGGAAGUUUGGACUGGGCAGAGCUCAACACAGCGUGGCAAAGUGGCUGUGGCUAGACUGCCUCUCUGGAUUCCUCGUCACUCAGCAGGGCAUCUCUGGGAGAAAUGCC [U29A A136G], with 1.38. As for UACGUAGGUGGUUUUCCCCUGAUAGUGCAAAGGGGGCCUGGAAGUUUGGACUGGGCAGAGCUCAACACAGCGUGGCAAAGUGGCUGUGGCUAGACUGCCUCUCUGGAUUCCUCGUCACUCAGCAGGGCAUCUCUGUGAGAAAUGCC [U29A A136U], the self-cleavage came out at 1.38. Then UACGUAGGUGGUUUUCCCCUGAUAGUGCAAAGGGGGCCUGGAAGUUUGGACUGGGCAGAGCUCAACACAGCGUGGCAAAGUGGCUGUGGCUAGACCGCCUCUCUGGAUUCCUCGUCACUCAGCAGGGCAUCUCUGAGAGAAAUGCC [U29A U96C], with 0.13; and UACGUAGGUGGUUUUCCCCUGAUAGUGCAAAGGGGGCCUGGAAGUUUGGACUGGGCAGAGCUCAACACAGCGUGGCAUAGUGGCUGUGGCUAGACUGCCUCUCUGGAUUCCUCGUCACUCAGCAGGGCAUCUCUGAGAGAAAUGCC [U29A A78U], with 1.48. Then UACGUAGGUGGUUUUCCCCUGAUAGUGCAAAGGGGGCCUGGAAGUUUGGACUGGGCAGAGCUCAACACAGCGUGGCAAAGUGGCUGUGGCUAGACUGCCUCUCUGGGUUCCUCGUCACUCAGCAGGGCAUCUCUGAGAGAAAUGCC [U29A A107G], with 1.56; and UACGUAGGUGGUUUUCCCCUGAUAGUGCAAAGGGGGCCUGGAAGUUUGGACUGGGCAGAGCUCAACACAGCGUGGCAAAGUGGCUGUGGCUAGACUGCCUCUCUGGAUUCCUCGUCACUCCGCAGGGCAUCUCUGAGAGAAAUGCC [U29A A121C], with 0.84; and UACGUAGGUGGUUUUCCCCUGAUAGUGCAAAGGGGGCCUGGAAGUUUGGACUGGGCAGAGCUCAACACAGCGUGGCAAAGUGGCUGUGGCUAGACUGCCUCUCUGGAUUCCUCGUCACUCAGCAGGGCAUCUUUGAGAGAAAUGCC [U29A C133U], with 0.85. Then UACGUAGGUGGUUUUCCCCUGAUAGUGCAAAGGGGGCCUGGAAGUUUGGACUGGGCAGGGCUCAACACAGCGUGGCAAAGUGGCUGUGGCUAGACUGCCUCUCUGGAUUCCUCGUCACUCAGCAGGGCAUCUCUGAGAGAAAUGCC [U29A A59G], with 0.16.

Turning to UACGUAGGUGGUUUUCCCCUGAUAGUGCAAAGGGGGCCUGGAAGUUUGGACUGGGCAGAGCUCAACACAGCGUGGCAAAGUGGCCGUGGCUAGACUGCCUCUCUGGAUUCCUCGUCACUCAGCAGGGCAUCUCUGAGAGAAAUGCC [U29A U85C], the self-cleavage came to 0.29.

For the variant UACGUAGGUGGUUUUCCCCUGAUAGUGCAAAGGGGGCCUGGAAGUUUGGACUGGGCAGAGCUCAACACAGCGUGGCAAAGUGGCAGUGGCUAGACUGCCUCUCUGGAUUCCUCGUCACUCAGCAGGGCAUCUCUGAGAGAAAUGCC [U29A U85A], the self-cleavage was 0.12.

Take UACGUAGGUGGUUUUCCCCUGAUAGUGCAAAGGGGGCCUGGAAGUUUGGACUGGGCAGAGCUCAACACAGCGUGGCAAAGUGGCUGUGGCUAGACUGCCUCUCUGGACUCCUCGUCACUCAGCAGGGCAUCUCUGAGAGAAAUGCC [U29A U108C]: the self-cleavage was found to be 2.61.

In the case of UACGUAGGUGGUUUUCCCCUGAUAGUGCAAAGGGGGCCUGGAAGUUUGGACUGGGCAGAGCUCAACACAGCGUGGCAAAGUGGCUGUGGCUAGACUGCCACUCUGGAUUCCUCGUCACUCAGCAGGGCAUCUCUGAGAGAAAUGCC [U29A U100A], the self-cleavage came to 0.91.
